Series [1] concerns the target T1, immature TasA protein (pro-TasA), 34 kDa.
T1 chain: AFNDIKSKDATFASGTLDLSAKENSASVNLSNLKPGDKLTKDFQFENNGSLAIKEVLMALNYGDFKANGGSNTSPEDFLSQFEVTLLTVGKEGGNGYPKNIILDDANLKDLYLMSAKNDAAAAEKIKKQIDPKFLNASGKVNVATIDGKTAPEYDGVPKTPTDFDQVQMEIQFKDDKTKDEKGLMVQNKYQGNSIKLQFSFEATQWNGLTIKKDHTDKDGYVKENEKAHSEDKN

Another series deals with T2, B. subtilis YqxM protein.
T2 chain: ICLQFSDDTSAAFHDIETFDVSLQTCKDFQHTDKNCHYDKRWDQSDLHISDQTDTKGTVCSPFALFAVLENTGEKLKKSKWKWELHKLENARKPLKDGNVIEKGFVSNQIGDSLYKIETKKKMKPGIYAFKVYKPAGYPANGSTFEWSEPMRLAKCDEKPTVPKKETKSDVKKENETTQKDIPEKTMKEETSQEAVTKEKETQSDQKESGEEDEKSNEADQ

The results in this text go back to patent publication US20020115184.

B1: B. subtilis SipW protein (signal peptidase) (protein)
chain: MKLISNILYVIIFTLIIVLTLVVISTRSSGGEPAVFGYTLKSVLSGSMEPEFNTGSLILVKEITDVKELQKGDVITFMQDANTAVTHRIVDITKQGDHLLFKTKGDNNAAADSAPVSDENVRAQYTGFQLPYAGYMLHFASQPIGTAVLLIVPGVMLLVYAFVTISSAIREIERKTKALETDTKDSTMST
For the protein B1, in series [1], the “Western blot for mature TasA in a strain where the neo promoter drives sipW and TasA and YqxM is disrupted” value was “A band corresponding to mature TasA was detected in extracts of spores and in both the culture supernatants and lysates of sporangia and vegetative cells. No protein of larger molecular weight that could correspond to immature TasA was detected”; the “Western blot of TasA size in sipW deletion strains (34 kDa immature against 31 kDa mature)” value was “a 34 kDa band was detected in both sporangial lysates and vegetative cells”. Besides, in the series with B. subtilis YqxM protein, the “Western blot of YqxM in concentrated E. coli culture supernatants” value was “when both YqxM and SipW were produced, YqxM was abundant in the culture supernatant and migrated as a smaller 31 kD species”; the “YqxM associated with the spore, with sipW deleted or under pSpac control” value was “deletion of sipW resulted in no measurable amount of YqxM associated with the spore”.
